Patent US12723255B2, “Herbicide tolerance genes and methods of use thereof” (priority 2014, dated 2026)
Residue numbers refer to the chain shown, from its start.

Tested on: F1 hybrid maize plants
Experiment: trait efficacy field trial, 2,4-D pressure screening, F1 hybrid
Type: in vivo
Details: crop injury percentage; for 4X 2,4-D CIPV4 / 4X 2,4-D CIPV8: 4 lb ae/acre at VE-V2, V4, V8; for 8X 2,4-D CIPV4 / 8X 2,4-D CIPV8: 8 lb ae/acre at VE-V2, V4, V8; for 16X 2,4-D CIPV4 / 16X 2,4-D CIPV8: 16 lb ae/acre at VE-V2, V4, V8
Description: Separate trait efficacy field trials for quizalofop-P and 2,4-D pressure screening were conducted at one location each with F1 hybrid transgenic plants produced by crossing an inbred plant containing maize event MON89034 with an R1 plant containing MON-HT1, MON-HT2, MON-HT8, MON-HT9, and MON-HT10 with and without operably linked CTP sequences. Transgenic F1 hybrid plants containing maize events NK603×MON89034 were used for comparison as a control.
Three herbicide treatments were used in the trait efficacy field trial for 2,4-D tolerance: (1) 2,4-D amine at 4 lb ac/acre (4×) plus 0.25% v/v NIS applied to VE-V2 followed by V4 followed by V8; (2) 2,4-D amine at 8 lb ac/acre (8×) plus 0.25% v/v NIS applied to VE-V2 followed by V4followed by V8 maize; or (3) 2,4-D amine at 16 lb ac/acre (16×) plus 0.25% v/v NIS applied to VE-V2 followed by V4 followed by V8. Plots were visually rated as above.
The injury rating for the control plants after all 2,4-D applications ranged from 80% to 96.25%. At the highest rate of 2,4-D (16×) applied through V8, the plants containing MON-HT1 or MON-HT2 operably linked to any of the three CTPs (A, B, or C) had better tolerance than plants containing MON-HT1 or MON-HT2 not operably linked to a CTP. Plants containing MON-HT1, MON-HT2, or MON-HT8 with or without an operably linked CTP had better tolerance to 2,4-D at all applications tested compared to plants containing either MON-HT9 or MON-HT10 with an operably linked ‘A’ CTP. Over the range of 2,4-D applications the relative ranking of tolerance was: plants containing MON-HT1 had better tolerance than plants containing MON-HT2 which were in turn better than plants containing MON-HT8. […] Error was calculated using LSD (0.05).

B1: MON-HT1: engineered oxygenase protein, amino acid sequence SEQ ID NO:14 (protein)
chain: MHAALTPLTNKYRFIDVQPLTGVLGAEITGVDLREPLDDSTWNEILDAFHTYQVIYFPGQAITNEQHIAFSRRFGPVDPVPILKSIEGYPEVQMIRREANESSRFIGDDWHTDSTFLDAPPAAVVMRAIEVPEYGGDTGFLSMYSAWETLSPTMQATIEGLNVVHSATKVFGSLYQATNWRFSNTSVKVMDVDAGDRETVHPLVVTHPVTGRRALYCNQVYCQKIQGMTDAESKSLLQFLYEHATKFDFTCRVRWKKDQVLVWDNLCTMHRAVPDYAGKFRYLTRTTVAGDKPSR
How did the “4X 2,4-D CIPV4” value (CTP A) turn out when B1 was run?
The value was 5.

What about the “4X 2,4-D CIPV8” value (CTP A) of the same molecule?
The value was 5.

And the “8X 2,4-D CIPV4” value (CTP A)?
The value was 5.

What about the “8X 2,4-D CIPV8” value (CTP A) of the same molecule?
The value was 10.

And the “16X 2,4-D CIPV4” value (CTP A)?
The value was 7.5.

And the “16X 2,4-D CIPV8” value (CTP A)?
Its value is 15.

And the “4X 2,4-D CIPV4” value (CTP B)?
Its value is 5.

What about the “4X 2,4-D CIPV8” value (CTP B) of the same molecule?
Its value is 5.

What about the “8X 2,4-D CIPV4” value (CTP B) of the same molecule?
Its value is 5.

What about the “8X 2,4-D CIPV8” value (CTP B) of the same molecule?
The value was 10.

And the “16X 2,4-D CIPV4” value (CTP B)?
Its value is 10.

What about the “16X 2,4-D CIPV8” value (CTP B) of the same molecule?
Its value is 15.

What about the “4X 2,4-D CIPV4” value (CTP C) of the same molecule?
Its value is 5.

And the “4X 2,4-D CIPV8” value (CTP C)?
The value was 5.

What about the “8X 2,4-D CIPV4” value (CTP C) of the same molecule?
Its value is 5.

And the “8X 2,4-D CIPV8” value (CTP C)?
Its value is 10.

What about the “16X 2,4-D CIPV4” value (CTP C) of the same molecule?
The value was 10.

What about the “16X 2,4-D CIPV8” value (CTP C) of the same molecule?
Its value is 17.5.

And the “4X 2,4-D CIPV4” value (no CTP)?
The value was 5.

And the “4X 2,4-D CIPV8” value (no CTP)?
Its value is 5.

What about the “8X 2,4-D CIPV4” value (no CTP) of the same molecule?
Its value is 7.5.

And the “8X 2,4-D CIPV8” value (no CTP)?
The value was 10.

And the “16X 2,4-D CIPV4” value (no CTP)?
The value was 10.

And the “16X 2,4-D CIPV8” value (no CTP)?
The value was 22.5.

B2: MON-HT2: engineered oxygenase protein, amino acid sequence SEQ ID NO:18 (protein)
chain: B1 chain with I82L, F105V, T112S, V273A
For B2, which “4X 2,4-D CIPV4” value (CTP A) is on record?
Its value is 5.

What about the “4X 2,4-D CIPV8” value (CTP A) of the same molecule?
The value was 5.

And the “8X 2,4-D CIPV4” value (CTP A)?
The value was 10.

And the “8X 2,4-D CIPV8” value (CTP A)?
The value was 7.5.

What about the “16X 2,4-D CIPV4” value (CTP A) of the same molecule?
Its value is 10.

What about the “16X 2,4-D CIPV8” value (CTP A) of the same molecule?
Its value is 20.

And the “4X 2,4-D CIPV4” value (CTP B)?
The value was 5.

And the “4X 2,4-D CIPV8” value (CTP B)?
The value was 5.

What about the “8X 2,4-D CIPV4” value (CTP B) of the same molecule?
Its value is 5.

What about the “8X 2,4-D CIPV8” value (CTP B) of the same molecule?
Its value is 10.

And the “16X 2,4-D CIPV4” value (CTP B)?
Its value is 10.

And the “16X 2,4-D CIPV8” value (CTP B)?
Its value is 25.

And the “4X 2,4-D CIPV4” value (CTP C)?
Its value is 10.

What about the “4X 2,4-D CIPV8” value (CTP C) of the same molecule?
The value was 15.

What about the “8X 2,4-D CIPV4” value (CTP C) of the same molecule?
Its value is 10.

What about the “8X 2,4-D CIPV8” value (CTP C) of the same molecule?
The value was 10.

And the “16X 2,4-D CIPV4” value (CTP C)?
The value was 15.

What about the “16X 2,4-D CIPV8” value (CTP C) of the same molecule?
The value was 20.

And the “4X 2,4-D CIPV4” value (no CTP)?
The value was 7.5.

What about the “4X 2,4-D CIPV8” value (no CTP) of the same molecule?
Its value is 7.5.

And the “8X 2,4-D CIPV4” value (no CTP)?
Its value is 17.5.

What about the “8X 2,4-D CIPV8” value (no CTP) of the same molecule?
The value was 42.5.

What about the “16X 2,4-D CIPV4” value (no CTP) of the same molecule?
Its value is 25.

And the “16X 2,4-D CIPV8” value (no CTP)?
Its value is 45.

B3: MON-HT8: engineered oxygenase protein, amino acid sequence SEQ ID NO:37 (protein)
chain: B1 chain with S103G, F105V, A272S, A277G, G278N, K279A
How did the “4X 2,4-D CIPV4” value (CTP A) turn out when B3 was run?
The value was 7.5.

What about the “4X 2,4-D CIPV8” value (CTP A) of the same molecule?
The value was 5.

What about the “8X 2,4-D CIPV4” value (CTP A) of the same molecule?
Its value is 10.

And the “8X 2,4-D CIPV8” value (CTP A)?
Its value is 12.5.

What about the “16X 2,4-D CIPV4” value (CTP A) of the same molecule?
The value was 15.

What about the “16X 2,4-D CIPV8” value (CTP A) of the same molecule?
Its value is 30.

What about the “4X 2,4-D CIPV4” value (CTP B) of the same molecule?
The value was 5.

What about the “4X 2,4-D CIPV8” value (CTP B) of the same molecule?
Its value is 7.5.

And the “8X 2,4-D CIPV4” value (CTP B)?
The value was 10.

What about the “8X 2,4-D CIPV8” value (CTP B) of the same molecule?
Its value is 27.5.

What about the “16X 2,4-D CIPV4” value (CTP B) of the same molecule?
Its value is 10.

What about the “16X 2,4-D CIPV8” value (CTP B) of the same molecule?
Its value is 20.

And the “4X 2,4-D CIPV4” value (CTP C)?
The value was 10.

And the “4X 2,4-D CIPV8” value (CTP C)?
The value was 7.5.

And the “8X 2,4-D CIPV4” value (CTP C)?
Its value is 10.

What about the “8X 2,4-D CIPV8” value (CTP C) of the same molecule?
The value was 17.5.

And the “16X 2,4-D CIPV4” value (CTP C)?
The value was 17.5.

And the “16X 2,4-D CIPV8” value (CTP C)?
Its value is 25.

B4: MON-HT9: engineered oxygenase protein, amino acid sequence SEQ ID NO:40 (protein)
chain: MHAALTPLTNKYRFIDVQPLTGVLGAEITGVDLREPLDDSTWNEILDAFHTYQVIYFPAQQITNEQHISFSRRFGPVDPVPLLKSIEGYPEVQMIRREANESGRILGDDWHTDSTFLDAPPAAVVMRAIEVPEYGGDTGFLSMYSAWDTLSDTMKATIEGLNVVHSATRVFGSLYQAQNWRFSNTSVKVMDVDAGDRETVHPLVVSHPVTGRRALYCNQVYCQRIEGMTDAESKCLLQFLYEHATKFDFTCRVRWKKDQVLVWDNLCTMHRAVPDYAGKFRYLTRTTVAGDRPAR
B4 was tested. Which “4X 2,4-D CIPV4” value (CTP A) did it give?
The value was 17.5.

And the “4X 2,4-D CIPV8” value (CTP A)?
Its value is 55.

What about the “8X 2,4-D CIPV4” value (CTP A) of the same molecule?
The value was 25.

And the “8X 2,4-D CIPV8” value (CTP A)?
The value was 75.

What about the “16X 2,4-D CIPV4” value (CTP A) of the same molecule?
The value was 45.

What about the “16X 2,4-D CIPV8” value (CTP A) of the same molecule?
The value was 90.

B5: MON-HT10: engineered oxygenase protein, amino acid sequence SEQ ID NO:43 (protein)
chain: B4 chain with T21C, A59G, Q61A, S69A, R271L, A277D, R292K, A294S
Which results are given for B5?
4X 2,4-D CIPV4 (CTP A): 32.5; 4X 2,4-D CIPV8 (CTP A): 70; 8X 2,4-D CIPV4 (CTP A): 55; 8X 2,4-D CIPV8 (CTP A): 87.5; 16X 2,4-D CIPV4 (CTP A): 45; 16X 2,4-D CIPV8 (CTP A): 90
